Laboratory results published in patent US20190113512A1 (MIT, published 2019).

What was measured:
[1] = biological target: T1, streptavidin Alexa Fluor 647 (UniProt P22629 37-163); test: yeast-surface display flow cytometry, secondary reagent alone, geometric MFI
T1 construct: also called SA-AF647; streptavidin-AF 647

[2] = biological target: H6BA (Mycobacterium tuberculosis); test: yeast-surface display flow cytometry, specificity test
[3] = biological target: T2, H2BA (Mycobacterium tuberculosis); test: as above
[4] = biological target: H7BA (Mycobacterium tuberculosis); test: as above
[5] = biological target: H1BA (Mycobacterium tuberculosis); test: as above
[6] = biological target: T2, H2BA; test: yeast-surface display; validated conditions not given

T1 sequence (P22629 37-163 limits assumed): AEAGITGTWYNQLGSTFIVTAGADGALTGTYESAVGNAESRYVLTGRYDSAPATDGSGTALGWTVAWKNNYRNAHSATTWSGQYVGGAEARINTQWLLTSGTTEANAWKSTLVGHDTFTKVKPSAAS

B1: rcSso7d.Rv1656 (yeast-surface displayed) (designed binder)
chain: MATVKFTYQGEEKQVDISKIKWVRRYGQYIGFSYDEGGGAWGKGYVSEKDAPKELLQMLEKQ
notes: also called rcSso7d.H4.2; H4.2
**Q.** Does B1 bind [1]?
**A.** Result: no binding

B2: rcSso7d.H1BA.3 (designed binder)
chain: MATVKFTYQGEEKQVDISKIKHVIRNGQYIIFAYDEGGGAYGGGWVSEKDAPKELLQMLEKQ
notes: also called 1.E2.2
**Q.** What does the source list for B2?
**A.** % positive [2]: 0.9%; % positive [3]: 0.9%; % positive [4]: 1.3%; % positive [5]: 71.5%

B3: rcSso7d.H2BA.2 (designed binder)
chain: MATVKFTYQGEEKQVDISKIKYVGRWGQNIGFAYDEGGGAYGYGGVSEKDAPKELLQMLEKQ
**Q.** Does B3 bind [6]?
**A.** Result: binds
